Results from PMC5454392, “Selective BET bromodomain inhibition as an antifungal therapeutic strategy” (Nature Communications, 2017).
Numbered stars: 1 amine (or outer) side, 2 acyl side, 3 side chain; on linkers, the order of the positions; unused ones are H or OH. Square brackets hold non-standard residues; d marks the D form. Ends that are not written are not given here. Arg(Me2a) = CN(C)C(=N)NCCC[C@H](N)C(=O)O; Kac = CC(=O)NCCCC[C@H](N[*:1])C(=O)[*:2]; Lys(Me3) = C[N+](C)(C)CCCC[C@H](N)C(=O)O; Arg(Me2s) = CN=C(NC)NCCC[C@H](N)C(=O)O; pT = C[C@@H](OP(=O)(O)O)[C@H](N)C(=O)O; Lys(Me2) = CN(C)CCCC[C@H](N)C(=O)O; pS = N[C@@H](COP(=O)(O)O)C(=O)O; Me2a = not defined here; me2a = not defined here

T1: CaBdf1 BD2 (GST-tagged, wild-type) (Candida albicans (strain SC5314 / ATCC …, UniProt Q5A4W8))
T1 chain: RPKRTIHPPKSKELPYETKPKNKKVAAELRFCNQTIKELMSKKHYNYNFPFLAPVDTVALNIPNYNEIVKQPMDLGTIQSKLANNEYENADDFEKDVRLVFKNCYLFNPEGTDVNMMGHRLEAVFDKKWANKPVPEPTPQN

T2: CaBdf1 BD1 (GST-tagged, wild-type) (Candida albicans (strain SC5314 / ATCC …, UniProt Q5A4W8))
T2 chain: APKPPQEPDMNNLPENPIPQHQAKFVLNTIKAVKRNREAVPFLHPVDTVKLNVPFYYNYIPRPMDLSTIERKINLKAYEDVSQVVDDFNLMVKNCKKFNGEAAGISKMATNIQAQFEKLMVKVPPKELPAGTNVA

B1: H3 1-19 (peptide)
chain: ARTKQTARKSTGGKAPRKQ
modifications: A Rme2a T Kme1 Q T A Rme2s Kme2 S T G G K A P R K Q
B2: H3 16-35 (peptide)
chain: PRKQLATKAARK(Ac)SAPATGG
B3: H3 1-19 (peptide)
chain: ARTKQTARKSTGGKAPRKQ
modifications: A Rme2s T Kme2 Q T A Rme2s K S T G G K A P R K Q
B4: H3 1-19 (peptide)
chain: ARTKQTARKSTGGKAPRKQ
modifications: A Rme2a T Kme3 Q T A R K S T G G K A P R K Q
B5: H4 1-19 (peptide)
chain: SGRGKGGKGLGKGGAKRHR
modifications: S G R G K G G Kac G L G Kac G G A K R H R
B6: H2B 1-19 (peptide)
chain: PDPAK(Ac)SAPAPKKGSK(Ac)KAVT
B7: H3 1-19 (peptide)
chain: A[Arg(Me2a)]T[Lys(Me3)]QTA[Arg(Me2s)][Lys(Me2)]STGGKAPRKQ
B8: H3 1-19 (peptide)
chain: AR(Me2a)[pT]K(Me2)QTARKSTGGKAPRKQ
modifications: reading uncertain
B9: H3 16-35 (peptide)
chain: PRKQLATKAARKSAPATGG
modifications: P R K Q L A T K A A Rme2a Kme2 S A P A T G G
B10: H3 1-19 (peptide)
chain: ARTKQTARKSTGGKAPRKQ
modifications: A R T K Q T A Rme2s Kme2 pS T G G K A P R K Q
B11: H3 1-19 (peptide)
chain: ARTKQTARKSTGGKAPRKQ
modifications: A Rme2s T Kac Q T A Rme2s Kme1 S T G G K A P R K Q
B12: H3 1-19 (peptide)
chain: ART[Kac]QTA[Arg(Me2a)][Lys(Me2)]STGGKAPRKQ
B13: H3 1-19 (peptide)
chain: ARTKQTARKSTGGKAPRKQ
modifications: A R T Kme1 Q T A Rme2a Kme3 S T G G K A P R K Q
B14: H3 16-35 (peptide)
chain: PRKQLATKAA[Arg(Me2a)]KSAPATGG
B15: H3 1-19 (peptide)
chain: AR[pT]K(Me3)QTARKSTGGKAPRKQ
B16: H4 1-19 (peptide)
chain: SGRGKGGKGLGKGGAKRHR
modifications: pS G Rme2s G Kac G G Kac G L G K G G A K R H R
B17: H2a 1-19 (peptide)
chain: SGRGK(Ac)QGGKARAKAKSRSS
B18: H2B 1-19 (peptide)
chain: PDPAK(Ac)SAPAPKK(Ac)G[pS]K(Ac)KAVT
B19: H3 1-19 (peptide)
chain: ARTKQTARKSTGGKAPRKQ
modifications: A R T K Q T A R Kme3 S T G G K A P R K Q
B20: H4 1-19 (peptide)
chain: SGRGKGGKGLGKGGAKRHR
modifications: S G Rme2s G Kac G G Kac G L G K G G A K R H R
B21: H3 1-19 (peptide)
chain: ARTKQTARKSTGGKAPRKQ
modifications: A R T K Q T A R Kme3 S pT G G K A P R K Q
B22: H3 16-35 (peptide)
chain: PRKQLATKAAR(Me2s)K(Me3)SAPATGG
B23: H2a 1-19 (peptide)
chain: [pS]GRGKQGGKARAKAKSRSS
B24: H4 1-19 (peptide)
chain: SGRGKGGKGLGKGGAKRHR
modifications: pS G Rme2a G Kac G G K G L G K G G A K R H R
B25: H3 1-19 (peptide)
chain: ARTKQTARKSTGGKAPRKQ
modifications: A Rme2s T Kme3 Q T A Rme2a Kme1 S T G G K A P R K Q
B26: H3 16-35 (peptide)
chain: PRKQLATKAAR(Me2a)K(Me2)[pS]APATGG
modifications: reading uncertain
B27: H3 1-19 (peptide)
chain: ARTKQTARKSTGGKAPRKQ
modifications: A Rme2a T Kme1 Q T A Rme2s Kme3 S T G G K A P R K Q
B28: H3 1-19 (peptide)
chain: ARTKQTA[Arg(Me2a)]K(Me)[pS][pT]GGKAPRKQ
B29: H3 1-19 (peptide)
chain: ARTKQTARKSTGGKAPRKQ
modifications: A Rme2a T Kme2 Q T A Rme2a Kme2 S T G G K A P R K Q
B30: H3 16-35 (peptide)
chain: PRKQLATKAAR(Me2s)K(Me2)[pS]APATGG
B31: H3 1-19 (peptide)
chain: AR[pT]K(Ac)QTARKSTGGKAPRKQ
B32: H3 1-19 (peptide)
chain: ARTKQTARKSTGGKAPRKQ
modifications: A R T K Q T A R Kme2 pS T G G K A P R K Q
B33: H3 1-19 (peptide)
chain: ARTKQTARKSTGGKAPRKQ
modifications: A R T K Q T A R Kme2 S T G G K A P R K Q
B34: H3 1-19 (peptide)
chain: ARTKQTARKSTGGKAPRKQ
modifications: A Rme2a T Kme3 Q T A Rme2s Kme1 S T G G K A P R K Q
B35: H3 1-19 (peptide)
chain: AR(Me2a)TK(Me)QTAR(Me2s)K(Ac)STGGKAPRKQ
modifications: reading uncertain
B36: H3 26-45 (peptide)
chain: RKSAPATGGVKKPHRYRPG
modifications: R K S A P A T G G V Kme2 K P H R Y R P G
B37: H2B 1-19 (peptide)
chain: PDPAKSAPAPKKGSKKAVT
modifications: not fully specified
B38: H2B 1-19 (peptide)
chain: PDPAKSAPAPKKGSK(Ac)KAVT
B39: H3 1-19 (peptide)
chain: A[Arg(Me2s)][pT]K(Ac)QTARKSTGGKAPRKQ
B40: H2a 1-19 (peptide)
chain: [pS]GRGK(Ac)QGGKARAK(Ac)AKSRSS
B41: H3 1-19 (peptide)
chain: ARTK(Me)QTARKSTGGKAPRKQ
B42: H3 1-19 (peptide)
chain: ARTK(Me)QTAR(me2a)K(Me)STGGKAPRKQ
modifications: reading uncertain
B43: H3 1-19 (peptide)
chain: ARTKQTARKSTGGKAPRKQ
modifications: A R T K Q T A R Kme1 S pT G G K A P R K Q
B44: H3 1-19 (peptide)
chain: A[Arg(Me2s)]TK(Ac)QTARK(Me)STGGKAPRKQ
B45: H3 1-19 (peptide)
chain: AR(Me2a)TK(Me2)QTARKSTGGKAPRKQ
modifications: reading uncertain
B46: H3 1-19 (peptide)
chain: AR[pT]K(Me)QTARKSTGGKAPRKQ
B47: H3 1-19 (peptide)
chain: A[Arg(Me2a)]TK(Ac)QTA[Arg(Me2s)][Lys(Me3)]STGGKAPRKQ
B48: H2B 1-19 (peptide)
chain: PDPAK(Ac)SAPAPKK(Ac)G[pS]KKAVT
B49: H3 1-19 (peptide)
chain: ARTKQTARKSTGGKAPRKQ
modifications: A R T Kme3 Q T A Rme2s Kme3 S T G G K A P R K Q
B50: H3 1-19 (peptide)
chain: ARTKQTARKSTGGKAPRKQ
modifications: A R T K Q T A Rme2a Kme2 pS pT G G K A P R K Q

Biological target: T1, CaBdf1 BD2 (GST-tagged, wild-type)
Assay: histone peptide array (Active Motif MODified), 1 uM GST-tagged bromodomain, anti-GST detection, normalized mean intensity

Row | Binder | binding score
1 | B1 | 0.00222
2 | B2 | 0.0307
3 | B3 | 0.00629
4 | B4 | 0.00259
5 | B5 | 0.0418
6 | B6 | 0.00962
7 | B7 | 0.00592
8 | B8 | 0
9 | B9 | 0.00555
10 | B10 | 0.00333
11 | B11 | 0.00407
12 | B12 | 0.00555
13 | B13 | 0.00333
14 | B14 | 0.00148
15 | B15 | 0.00296
16 | B16 | 0.0352
17 | B17 | 0.0074
18 | B18 | 0.232
19 | B19 | 0.00222
20 | B20 | 0.0322
21 | B21 | 0.0037
22 | B22 | 0.0037
23 | B23 | 0.00592
24 | B24 | 0.00444
25 | B25 | 0.00222

Row | Binder | binding score
26 | B26 | 0.00555
27 | B27 | 0.00629
28 | B28 | 0.0037
29 | B29 | 0.00555
30 | B30 | 0.00074
31 | B31 | 0.00333
32 | B32 | 0.00333
33 | B33 | 0.00296
34 | B34 | 0.00407
35 | B35 | 0.0037
36 | B36 | 0.00555
37 | B37 | 0.00074
38 | B38 | 0.00481
39 | B39 | 0.00333
40 | B40 | 0.0148
41 | B41 | 0.00185
42 | B42 | 0.00407
43 | B43 | 0.0037
44 | B44 | 0.00333
45 | B45 | 0.0037
46 | B46 | 0.00296
47 | B47 | 0.0122
48 | B48 | 0.00481
49 | B49 | 0.00407
50 | B50 | 0.00555

Biological target: T2, CaBdf1 BD1 (GST-tagged, wild-type)
Assay: as above

Row | Binder | binding score
51 | B1 | 0.00218
52 | B2 | 0.0138
53 | B3 | 0.00181
54 | B4 | 0.0109
55 | B5 | 0.0707
56 | B6 | 0.0323
57 | B7 | 0.00326
58 | B8 | 0.00181
59 | B9 | 0.00363
60 | B10 | 0.00363
61 | B11 | 0.00653
62 | B12 | 0.00761
63 | B13 | 0.00254
64 | B14 | 0.00326
65 | B15 | 0.00435
66 | B16 | 0.054
67 | B17 | 0.021
68 | B18 | 0.0982
69 | B19 | 0.0029
70 | B20 | 0.0334
71 | B21 | 0.00363
72 | B22 | 0.00181
73 | B23 | 0.0131
74 | B24 | 0.0105
75 | B25 | 0.0272

Row | Binder | binding score
76 | B26 | 0.00145
77 | B27 | 0.00471
78 | B28 | 0.00471
79 | B29 | 0.00399
80 | B30 | 0.00363
81 | B31 | 0.00725
82 | B32 | 0.00326
83 | B33 | 0.00109
84 | B34 | 0.00326
85 | B35 | 0.0341
86 | B36 | 0.0058
87 | B37 | 0.00435
88 | B38 | 0.0199
89 | B39 | 0.00761
90 | B40 | 0.0964
91 | B41 | 0.000725
92 | B42 | 0.00508
93 | B43 | 0.00326
94 | B44 | 0.00798
95 | B45 | 0.00109
96 | B46 | 0.00471
97 | B47 | 0.00653
98 | B48 | 0.00979
99 | B49 | 0.00399
100 | B50 | 0.00471
